How the values were obtained:
[1] = target: T1, I-LtrI (Leptographium truncatum, UniProt C7SWF3 C7SWF3:407-712); assay: structure; co-crystal structure at 2.7 A (PDB 3R7P); settings: overhang ends
T1 sequence: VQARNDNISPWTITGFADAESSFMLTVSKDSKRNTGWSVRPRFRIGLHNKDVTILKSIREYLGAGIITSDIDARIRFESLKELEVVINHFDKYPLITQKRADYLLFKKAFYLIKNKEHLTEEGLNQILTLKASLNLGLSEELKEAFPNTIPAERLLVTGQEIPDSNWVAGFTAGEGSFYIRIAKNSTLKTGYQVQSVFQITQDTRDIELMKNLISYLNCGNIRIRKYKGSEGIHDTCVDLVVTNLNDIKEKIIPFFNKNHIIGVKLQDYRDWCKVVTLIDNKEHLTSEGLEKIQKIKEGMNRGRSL
Protocol: To obtain I-LtrI-DNA co-crystals, the DNA oligonucleotides (5′-[…]-3′ (SEQ ID NO: 119) and 5′-[…]-3′ (SEQ ID NO:120)) were purchased from Integrated DNA Technologies ([…], standard desalting purification). The oligonucleotides were dissolved in TE buffer (10 mM Tris-HCl (pH 8.0) and 1 mM EDTA), and the complementary DNA strands were annealed by incubation at 95° C. for 10 min and slow cooling to 4° C. over a six hour period. […] The protein-DNA drops were mixed in a 1:1 volume ratio with a reservoir solution containing 100 mM Bis-Tris (pH 6.5), 200 mM magnesium chloride, and 20% (v/v) polyethylene glycol 3500 and equilibrated at 22° C. The crystals diffracted up to approximately 2.7 Å resolution at the ALS beamline 5.0.1. The data set was processed using HKL2000 package. The polyalanine model of I-OnuI/DNA complex (PDB ID: 3QQY) was used as a search model for molecular replacement. One copy of the search model was found and the structure was refined using REFMAC5. The final model was deposited in RCSB Protein Data Bank with ID code 3R7P.

[2] = target: T2, I-OnuI (Ophiostoma novo-ulmi); assay: structure; co-crystal structure at 2.4 A (PDB 3QQY); settings: tags: GST fusion (pGEX-6P-3), tag removed by PreScission protease; label: 32P (radiolabeled) in EMSA and cleavage
T2 chain: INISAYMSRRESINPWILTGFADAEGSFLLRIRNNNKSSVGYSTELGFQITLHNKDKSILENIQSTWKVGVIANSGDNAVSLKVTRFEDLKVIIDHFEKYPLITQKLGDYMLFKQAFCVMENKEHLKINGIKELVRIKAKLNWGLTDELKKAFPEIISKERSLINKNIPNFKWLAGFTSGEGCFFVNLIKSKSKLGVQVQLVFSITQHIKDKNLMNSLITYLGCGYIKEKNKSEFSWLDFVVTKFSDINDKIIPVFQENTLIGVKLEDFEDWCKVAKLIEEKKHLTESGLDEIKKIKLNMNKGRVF

B1: I-LtrI co-crystal duplex (dsDNA)
DNA 1: GGTCTAAACGTCGTATAGGAGCATTTGG
DNA 2: CAAATGCTCCTATACGACGTTTAGACCC
[1]
  binding result: binds

B2: I-OnuI wild-type target site (RPS3) (dsDNA)
DNA 1: TTTCCACTTATTCAACCTTTTA
DNA 2: TAAAAGGTTGAATAAGTGGAAA
[2]
  binding result: binds

Source: US20140148361, “Generation and Expression of Engineered I-ONUI Endonuclease and Its Homologues and Uses Thereof” (published 2014)
